In the Immune Epitope Database (IEDB):

How the values were obtained:
HLA-A*30:02 = test: IEDB peptide-MHC binding, purified MHC/competitive/radioactivity; filed as Kd, often an IC50 or EC50 that approximates it; ≥ and ≤ were set here for values at or beyond the usual limits of such assays; conditions: source organism: Dengue virus 4 Philippines/H241/1956
HLA-B*57:01 = test: as above; conditions: source organism: Dengue virus 4 Philippines/H241/1956
HLA-A*01:01 = test: as above; conditions: source organism: Dengue virus 4 Philippines/H241/1956
HLA-A*32:01 = test: as above; conditions: source organism: Dengue virus 4 Philippines/H241/1956
HLA-B*15:02 = test: IEDB peptide-MHC binding, purified MHC/direct/fluorescence; filed as Kd, often an IC50 or EC50 that approximates it; ≥ and ≤ were set here for values at or beyond the usual limits of such assays; conditions: source organism: dengue virus type 4
HLA-B*46:01 = test: as above; conditions: source organism: dengue virus type 4
HLA-B*07:02 = test: IEDB peptide-MHC binding, purified MHC/competitive/radioactivity; ≥ and ≤ were set here for values at or beyond the usual limits of such assays; conditions: source organism: Toxoplasma gondii
HLA-A*02:01 = test: as above; conditions: source organism: Toxoplasma gondii
HLA-A*11:01 = test: as above; conditions: source organism: Toxoplasma gondii

| Sequence | Kd (HLA-A*30:02) | Kd (HLA-B*57:01) | Kd (HLA-A*01:01) | Kd (HLA-A*32:01) | Kd (HLA-B*15:02) | Kd (HLA-B*46:01) | IC50 (HLA-B*07:02) | IC50 (HLA-A*02:01) | IC50 (HLA-A*11:01) |
| --- | --- | --- | --- | --- | --- | --- | --- | --- | --- |
| RTWAYHGSY | 0.19 nM | 15.8 nM | 1280 nM | 1.46 nM | ≥ 20000 nM | ≥ 20000 nM | – | – | – |
| STFWPCLLR | – | – | – | – | – | – | ≥ 50000 nM | 27000 nM | 9.3 nM |
